These are literature values, as cited in patent US20260250369A1, “METHODS OF TREATING LIVER FIBROSIS, INFLAMMATION OR ASSOCIATED DISEASES USING AN ANGPTL4 ANTAGONIST” (Nanyang Technological University, priority 2022, published 2026).

The data set concerns the target T1, human cANGPTL4 (Homo sapiens, UniProt Q9BY76).
T1 sequence (Q9BY76 186-406 limits assumed): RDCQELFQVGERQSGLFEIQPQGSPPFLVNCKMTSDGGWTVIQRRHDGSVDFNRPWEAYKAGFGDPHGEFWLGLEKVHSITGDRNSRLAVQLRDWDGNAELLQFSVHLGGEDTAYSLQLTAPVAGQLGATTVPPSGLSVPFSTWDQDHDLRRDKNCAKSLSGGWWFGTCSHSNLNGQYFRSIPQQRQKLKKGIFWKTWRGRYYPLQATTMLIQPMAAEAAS

B1: mAb11F6C4: murine monoclonal antibody directed against human cANGPTL4; heavy chain SEQ ID NO 15, light chain SEQ ID NO 16 (antibody, V domains shown)
VH: QVQLQESGPGILKPSQTLSLTCSFSGFSLSTSGMGVGWIRQPSGKGLERLAHIWWDDDKYYNPSLKSQLTISKDTSRNQVFLKIISVDTADTATYYCARKDYGSSYDYRGQGTTVTVS
VL: DIELTQSPASLAVSLGQRATISCKASQSVDYDGDSYLNRFQQKPGQPPKLLIYTASNLESGIPARFSGSGSGTDFTLNIHPVEEEDAATYYCQQSNEDPWTFGGGTKLEIKR
Consider B1, for which the “Effect on mitochondrial activities and glucose regulations of ANGPTL4” value was “does not affect”; the Epitope targeted result was “target an epitope that resides within the C-terminus of human ANGPTL4”.
